Residue numbers refer to the chain shown, from its start.
T1: mouse FcγRII (mouse, UniProt P08101 30-210)
T1 construct: also called mFcγRII; mFcgRII
T1 sequence: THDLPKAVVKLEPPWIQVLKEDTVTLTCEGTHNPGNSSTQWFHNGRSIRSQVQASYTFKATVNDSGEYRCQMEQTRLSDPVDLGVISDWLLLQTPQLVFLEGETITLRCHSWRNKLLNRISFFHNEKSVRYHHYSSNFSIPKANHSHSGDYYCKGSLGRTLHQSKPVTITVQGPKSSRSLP

T2: mouse FcγRIII (mouse, UniProt P08508 31-215)
T2 construct: also called mFcγRIII; mFcgRIII
T2 chain: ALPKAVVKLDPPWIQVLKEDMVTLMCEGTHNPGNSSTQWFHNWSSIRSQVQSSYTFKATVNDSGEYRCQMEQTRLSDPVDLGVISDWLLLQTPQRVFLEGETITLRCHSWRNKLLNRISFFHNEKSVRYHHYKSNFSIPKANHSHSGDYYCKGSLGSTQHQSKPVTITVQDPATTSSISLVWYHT

T3: mouse FcγRII extracellular domain, C-terminal His tag (mouse, UniProt P08101 30-210)
T3 construct: Whole entry named; also called mFcγRII; mFcgRII
T3 sequence: T1 sequence

T4: mouse FcγRIII extracellular domain, C-terminal His tag (mouse, UniProt P08508 31-215)
T4 construct: Whole entry named; also called mFcγRIII; mFcgRIII
T4 chain: T2 chain

B1: MB313 (antibody, mouse IgG1, kappa)
heavy: QVQLQESGPGLVKPSETLSLTCAVSGHSISHDHAWSWVRQPPGEGLEWIGFISYSGITNYNPSLQGRVTISRDNSKNTLYLQMNSLRAEDTAVYYCARSLARTTAMDYWGEGTLVTVSSAKTTPPSVYPLAPGSAAQTNSMVTLGCLVKGYFPEPVTVTWNSGSLSSGVHTFPAVLQSDLYTLSSSVTVPSSTWPSETVTCNVAHPASSTKVDKKIVPRDCGCKPCICTVEEVEDVFIFPPKPKDVLTITLTPKVTCVVVDISKDDPEVQFSWFVDDVEVHTAQTQPREEQFNSTFRSVSELPIMHQDWLNGKEFKCRVNSAAFPAPIEKTISKTKGRPKAPQVYTIPPPKEQMAKDKVSLTCMITDFFPEDITVEWQWNGQPAENYKNTQPIMDTDGSYFVYSKLNVQKSNWEAGNTFTCSVLHEGLHNHHTEKSLSHSPGK
light: not shown
notes: copies: 2 + 2
B2: MB314 (antibody, mouse IgG1, kappa)
heavy: B1 heavy with E234S, V236E
light: not shown
notes: copies: 2 + 2
B3: MB320 (antibody, mouse IgG1, kappa)
heavy: B1 heavy with T229E, V230A, V236E
light: not shown
notes: copies: 2 + 2
B4: MB317 (antibody, mouse IgG1, kappa)
heavy: B1 heavy with E231P, V236H
light: not shown
notes: copies: 2 + 2
B5: MB326 (antibody, mouse IgG1, kappa)
heavy: B1 heavy with T229E, V236H
light: not shown
notes: copies: 2 + 2
B6: MB323 (antibody, mouse IgG1, kappa)
heavy: B1 heavy with T229E, V230D, V236E
light: not shown
notes: copies: 2 + 2
B7: MB324 (antibody, mouse IgG1, kappa)
heavy: B1 heavy with T229E, V230D, V236H
light: not shown
notes: copies: 2 + 2
B8: MB316 (antibody, mouse IgG1, kappa)
heavy: B1 heavy with E231P, V236E
light: not shown
notes: copies: 2 + 2
B9: MB318 (antibody, mouse IgG1, kappa)
heavy: B1 heavy with T229E
light: not shown
notes: copies: 2 + 2
B10: MB322 (antibody, mouse IgG1, kappa)
heavy: B1 heavy with T229E, V230D
light: not shown
notes: copies: 2 + 2
B11: MB325 (antibody, mouse IgG1, kappa)
heavy: B1 heavy with T229E, V236E
light: not shown
notes: copies: 2 + 2
B12: MB321 (antibody, mouse IgG1, kappa)
heavy: B1 heavy with T229E, V230A, V236H
light: not shown
notes: copies: 2 + 2
B13: MB319 (antibody, mouse IgG1, kappa)
heavy: B1 heavy with T229E, V230A
light: not shown
notes: copies: 2 + 2
B14: MB315 (antibody, mouse IgG1, kappa)
heavy: B1 heavy with E234S, V236H
light: not shown
notes: copies: 2 + 2
B15: H237-MB364/MRAL-k0 (antibody)
heavy: B1 heavy with T229E, V230A, E231K
light: not shown
notes: copies: 2 + 2
B16: H237-MB563/MRAL-k0 (antibody, mouse IgG1, kappa)
heavy: B1 heavy with E231P, D235W
light: not shown
notes: copies: 2 + 2
B17: H237-MB565/MRAL-k0 (antibody, mouse IgG1, kappa)
heavy: B1 heavy with E231P, D235S, F237E
light: not shown
notes: copies: 2 + 2
B18: H237-MB564/MRAL-k0 (antibody, mouse IgG1, kappa)
heavy: B1 heavy with E231P, D235S, F237D
light: not shown
notes: copies: 2 + 2
B19: H237-MB561/MRAL-k0 (antibody, mouse IgG1, kappa)
heavy: B1 heavy with E231P, V233E, D235S
light: not shown
notes: copies: 2 + 2
B20: H237-MB568/MRAL-k0 (antibody, mouse IgG1, kappa)
heavy: B1 heavy with E231P, D235S, S294H
light: not shown
notes: copies: 2 + 2
B21: H237-MB562/MRAL-k0 (antibody, mouse IgG1, kappa)
heavy: B1 heavy with E231P, D235F
light: not shown
notes: copies: 2 + 2
B22: H237-MB566/MRAL-k0 (antibody, mouse IgG1, kappa)
heavy: B1 heavy with E231P, D235S, F237T
light: not shown
notes: copies: 2 + 2
B23: H237-MB567/MRAL-k0 (antibody, mouse IgG1, kappa)
heavy: B1 heavy with E231P, D235S, S263M
light: not shown
notes: copies: 2 + 2

These binders were tested against T1, mouse FcγRII (assay: SPR Biacore T200, KD ratio).
Source text: (§1) The antibody H chain variable region used was the variable region H237 (SEQ ID NO: 1) of the H chain VH3-IgG1 of the anti-IL-6 receptor antibody Fv4-IgG1 described in WO2009/125825. The antibody L chain commonly used was the L chain MRAL-k0 (SEQ ID NO: 2) of the anti-IL-6 receptor antibody tocilizumab. […] The resulting variant group was designated as MB110 variants. These variants were expressed and purified by the method of Reference Example 1 and evaluated for their binding to mFcγRII and mFcγRIII by the method of Reference Example 2 using Biacore T200.
(§2) Each altered antibody was analyzed for its interaction with each Fcγ receptor prepared above using Biacore T100 (GE Healthcare Japan Corp.), Biacore T200 (GE Healthcare Japan Corp.), Biacore A100, or Biacore 4000. The running buffer used was HBS-EP+ (GE Healthcare Japan Corp.). The assay temperature was set to 25° C. The sensor chips used were chips prepared by immobilizing Protein L (ACTIGEN or BioVision) onto Series S Sensor Chip CM5 (GE Healthcare Japan Corp.) or Series S Sensor Chip CM4 (GE Healthcare Japan Corp.) by the amine coupling method.
(§3) In order to calculate the KD value of each altered antibody for FcγR, kinetic analysis was conducted according to the following method: first, the antibody of interest was captured onto any of these chips and allowed to interact with mFcγR diluted with a running buffer. For the obtained sensorgram, the assay results were globally fit into the 1:1 Langmuir binding model using Biacore Evaluation Software to calculate an association rate constant ka (L/mol/s) and a dissociation rate constant kd (1/s). From these values, the dissociation constant KD (mol/L) was calculated.

Binder	Relative mFcγRII-binding activity (MB110 = 1)	relative mFcγRII-binding activity (mIgG1 = 1)
B1	3.27 fold	40.1 fold
B2	0.58 fold	7.1 fold
B3	0.26 fold	3.2 fold
B4	0.49 fold	6 fold
B5	0.33 fold	4 fold
B6	0.13 fold	1.7 fold
B7	0.09 fold	1.1 fold
B8	0.61 fold	7.4 fold
B9	3.29 fold	40.5 fold
B10	0.75 fold	9.2 fold
B11	0.38 fold	4.7 fold
B12	0.28 fold	3.5 fold
B13	4.07 fold	50 fold
B14	0.48 fold	5.9 fold

Molecular target: T2, mouse FcγRIII
Assay: SPR Biacore T200, KD ratio
Source text: as §1, §2, §3

Binder	Relative mFcγRIII-binding activity (MB110 = 1)	relative mFcγRIII-binding activity (mIgG1 = 1)
B1	0.99 fold	4 fold
B2	0.27 fold	1.1 fold
B3	0.11 fold	0.4 fold
B4	0.12 fold	0.5 fold
B5	0.06 fold	0.2 fold
B6	0.03 fold	0.1 fold
B7	0.03 fold	0.1 fold
B8	0.31 fold	1.2 fold
B9	0.96 fold	3.9 fold
B10	0.31 fold	1.3 fold
B11	0.15 fold	0.6 fold
B12	0.05 fold	0.2 fold
B13	0.89 fold	3.6 fold
B14	0.2 fold	0.8 fold

What follows are binders tested against T3, mouse FcγRII extracellular domain, … (assay: SPR (Biacore T200); KD of H237-mIgG1/MRAL-k0 / KD of variant).

Binder	relative mFcγRII-binding activity (mIgG1 = 1)
B15	6.55 fold
B16	0.2 fold
B17	0.66 fold
B18	0.32 fold
B19	0.48 fold
B20	0.71 fold
B21	0.05 fold
B22	0.18 fold
B23	0.21 fold

Molecular target: T4, mouse FcγRIII extracellular domain, …
Assay: as above

Binder	relative mFcγRIII-binding activity (mIgG1 = 1)
B15	1.35 fold
B16	0.08 fold
B17	0.23 fold
B18	0.11 fold
B19	0.07 fold
B20	0.18 fold
B21	0.02 fold
B22	0.1 fold
B23	0.07 fold

Source: US20150203577A1 (Chugai, published 2015)
